According to patent publication US20200108091A1, “GUT-PROTECTIVE EFFECT OF RIG-1/MAVS AND STING ACTIVATION” (MEMORIAL SLOAN-KETTERING CANCER CENTER, priority 2017, published 2020):

System: small intestinal organoids
Assay: Ex vivo organoid culture of small intestine crypts
Type: cell-based, mouse
Description: Isolation of intestinal epithelial crypts was performed as previously described (26). Briefly, after harvesting small intestines, the organs were opened longitudinally and washed. Small intestine was incubated in 10 mM ethylenediamine-tetraacetatic acid (EDTA) for 25 min (4° C.) to dissociate the crypts. The supernatant containing crypts was collected.
250 crypts per well were suspended in growth factor reduced Matrigel (Corning) (33% ENR-medium; 66% growth factor reduced Matrigel) at 4° C. Then, they were plated in delta-surface Nunc 24-well plates in 30 μL drops, each containing approximately 250 crypts. […]
To determine the effect of 3pRNA/interferon stimulatory DNA/rmIFN-β on organoid size and morphology, bright-field microscopy images were taken using a Zeiss Axiovision Observer microscope with a 5× objective lens after 5 or 7 days in culture. 2D area and perimeter were analyzed using border perimeter tracing of organoids found in four representative fields of each well using Image J software. For assessment of gene expression by quantitative (q) PCR, organoids were subjected to RNA extraction 24 hours after culture using Trizol reagent (Invitrogen) according to manufacturer's protocol. Isolated RNA was reverse-transcribed using the Quantitect Reverse Transcription Kit (Qiagen). […]

B1: recombinant IFN-β: recombinant murine (rm) IFN-β (20 U/ml; PBL (12400-1)) (protein, UniProt P01575 22-182, looked up)
Interferon beta: INYKQLQLQERTNIRKCQELLEQLNGKINLTYRADFKIPMEMTEKMQKSYTAFAIQEMLQNVFLVFRNNFSSTGWNETIVVRLLDELHQQTVFLKTVLEEKQEERLTWEMSSTALHLKSYYWRVQRYLKLMKYNSYAWMVVRAEIFRNFLIIRRLTRNFQN
number of organoids (7 days in culture, IFN-β 20 U/ml or α-IFNaR1 Ab 10 ug/ml): Neither recombinant IFN-β nor IFNAR blockade could influence | organoid size (recombinant murine IFN-β 20 U/ml, 5 or 7 days in culture): increased organoid size
